This sample holds only a part of the variants without activity.
B1: glmS ribozyme (parent)
chain: AUAAAAGCGCCAGAACUACAGAAAUGUAGUUGACGAGGAGGAGGUUUAUCGAAUUUUCGGCGGAUGCCUCCAAA

Legend:
Conditions in all cases: with glucosamine-6-phosphate
glucosamine-6-phosphate [1] = variants of: B1; test: self-cleavage kobs at 160 uM GlcN6P; higher = faster cleavage; RNA array
Method in brief: (§1)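 Weighted Michaelis–Menten fits across concentrations supplied kcat and KM, based on kobs from one- or two-exponential decay fits to normalised per-tile medians. The data came from barcoded ribozyme variants transcribed in situ by E. coli RNA polymerase on sequenced MiSeq chips and tracked at 37 °C by a hybridised Cy3 probe. Glucosamine-6-phosphate (40 μM to 10 mM) in HEPES/KCl/Mg(OAc)2 buffer was flowed in.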

glucosamine-6-phosphate [2] = variants of: B1; test: self-cleavage kobs at 2500 uM GlcN6P; higher = faster cleavage; RNA array
Method in brief: as §1

glucosamine-6-phosphate [3] = variants of: B1; test: self-cleavage kobs at 10000 uM GlcN6P; higher = faster cleavage; RNA array
Method in brief: as §1

glucosamine-6-phosphate [4] = variants of: B1; test: self-cleavage kobs at 640 uM GlcN6P; higher = faster cleavage; RNA array
Method in brief: as §1

| Variant | self-cleavage kobs at 160 uM GlcN6P (glucosamine-6-phosphate [1]) | self-cleavage kobs at 2500 uM GlcN6P (glucosamine-6-phosphate [2]) | self-cleavage kobs at 10000 uM GlcN6P (glucosamine-6-phosphate [3]) | self-cleavage kobs at 640 uM GlcN6P (glucosamine-6-phosphate [4]) |
| --- | --- | --- | --- | --- |
| AUAAAUGCGCCAGUACUACAGAAAUGUAGUUGACGAGUAGGAGGUUUAUAUACUUUUCGGCGAAUGCCUCCAAA | < 1e-05 s⁻¹ | – | – | – |
| AUAAAGGCGCCAGAACUACAGAAAUGUAGUUGACGAGAAGGAUGUUUUUCGCAUUUUCGGCGGAUGCCGCCAAA | < 1e-05 s⁻¹ | < 1e-05 s⁻¹ | – | – |
| AUAAAAACGCCCGAACUACAGAAAUGUAGUUGACGAGGAGGAGGUUUAUCGAAUUUUCGGCGGAUGCCUCCAAA | < 1e-05 s⁻¹ | – | – | – |
| AUAAAAACGCCAGAACUACAGAAAUGUAGUUGACGAGGAGGAGGUUUGUCGAAUUUUCGGCGGAUGCCUCCAAA | < 1e-05 s⁻¹ | < 1e-05 s⁻¹ | < 1e-05 s⁻¹ | – |
| AUAAAAACGCCAGAACUACAGAAAUGUAGUUGACGAGGAGUAGGUUUAUCGAAUUUUCGGCGGAUGCCUCCAAA | < 1e-05 s⁻¹ | – | < 1e-05 s⁻¹ | < 1e-05 s⁻¹ |
| AUAAAUGUGCCAGAACUACAGAAAUGUAGUUGACGAGGAGGAGGUUUAUCGAAUUUUCGGCGGAUGCCUUCAAA | < 1e-05 s⁻¹ | < 1e-05 s⁻¹ | < 1e-05 s⁻¹ | – |
| AUAAAAACGCCAGAACUACAGAAAUGUAGUUGACGAGGAGGAGGUUUAUCGAAUUUUCGGCGGAUGCCUCGAAA | < 1e-05 s⁻¹ | – | – | – |
| AUAAAAACUCCAGAACUACAGAAAUGUAGUUGACGAGGAGGAGGUUUAUUGAAUUUUCGGCGGAUGCCUCCAAA | < 1e-05 s⁻¹ | < 1e-05 s⁻¹ | – | – |
| AUAAAUGCGCCAGAACUACAGAAAUGUAGUUGACGAGGAGGAGUUUUAUCGAAUUUUCGGUGGAUGCCUCCAAA | < 1e-05 s⁻¹ | < 1e-05 s⁻¹ | – | < 1e-05 s⁻¹ |
| AUAAAUGCGCCAGAACUACAGAAAUGUAGGUGACGAGGAGGAGUUUUAUCGACUUUUCGGCGGAUGCCUCCAAA | < 1e-05 s⁻¹ | < 1e-05 s⁻¹ | – | < 1e-05 s⁻¹ |
| AUAAAUGCACCAGAACUACAGAAAUGUAGUUGACGAGGAGGAGGUUUACCGAAUUUUCGGCGGAUGCCUCCAAA | < 1e-05 s⁻¹ | – | – | – |
| AUAAAUGCGCCAGAACUACAGAAAUGUAGUUGACGAGGAAGAGGUUUAUCGCAUUUUCGGCGGAUGCCUCCAAA | < 1e-05 s⁻¹ | < 1e-05 s⁻¹ | – | < 1e-05 s⁻¹ |
| AUAAAGGCGCCAGAACUACAGAAAUGUAGUUGACGAGGAGGAGGUUCAUCGAAUUUUCGGCGGAUGGCUCCAAA | < 1e-05 s⁻¹ | – | – | < 1e-05 s⁻¹ |
| AUAAAGUCGCCAGGACUACAGAAAUGUAGUUGCCGAGGAGGAGGUUUAUCGAAUUUUCGGCGGAUGCCUCCAAA | < 1e-05 s⁻¹ | – | – | – |
| AUAAAUGCGCCAGAACUACAGAAAUGUAGUUGACGAGGAGUAGGUUUAUCGAAUUUUCGGCGGAUGCAUCCAAA | < 1e-05 s⁻¹ | < 1e-05 s⁻¹ | – | – |
| AUAAAGGCGCCAGAACUACAGAAAUGUAGUUGACGAGGAGGAGGUUCAUCGAAUCUUCGGCGGAUGCCUCUAAA | < 1e-05 s⁻¹ | < 1e-05 s⁻¹ | – | < 1e-05 s⁻¹ |
| AUAAAAACGCCAGAACUACAGAAAUGUAGUUGACGAGGAGGAGGUUUUUCGAUUUUUCGGCGGAAGCCUCCAAA | < 1e-05 s⁻¹ | – | – | < 1e-05 s⁻¹ |
| AUAAAGGCGCCAGAACUACAGAAAUGUAGUUGACGAGGAGGAGGUCUAUCGAAUUUGCGGCGGAUGCCUCCAAA | < 1e-05 s⁻¹ | – | – | – |
| AUAAAUGCGCCAGAACUACAGAAAUGUAGUUGACGAGUAGGAGGUUGAUCGAAUUUUCGGCGGAUGCCUCCAAA | < 1e-05 s⁻¹ | – | – | – |

Reference: the supplement of paper PMC7125110
